According to patent publication US20120270297A1, “CULTURING AND GENETIC MANIPULATIONS OF THERMOTOGA SPP” (BOWLING GREEN STATE UNIVERSITY, priority 2011, published 2012):
Read-outs that look alike come from different tables or passages of the source.

Experiments:
[1] = crude yeast extract, 37° C., cited from earlier work
T. sp. RQ7 = assay: Selective levels of kanamycin in liquid and solid SVO media; format: cell-based, Thermotoga sp. RQ7; details: SVO plates, 48 h of incubation
Experimental: (§1) One ml of overnight culture was mixed with 25 ml of hot SVO containing 0.3% GELRITE and poured to Petri dishes. Small discs of 7 mm in diameter were cut from Whatman qualitative filter paper and were placed on solidified plates. Various amount of kanamycin (50˜250 μg) was added to the paper discs. After 48 h of anaerobic incubation, sensitive strains would display inhibition zones surrounding the discs. To specify the selective levels of the antibiotic in both liquid and solid media, kanamycin ranging from 50 to 300 μg ml^−1 was supplemented, and the proliferation of bacteria was monitored for up to 72 h.
(§2) We next specified the selective levels of kanamycin in both liquid and solid media. […] However, spontaneous mutations sometimes caused the cultures to become resistant to the antibiotic, and a complete inhibition over a period of 72 h was only possible when the input amount was increased to 150 μg ml^−1. Similar phenomena were also noticed with T. sp. RQ7. On SVO plates, spontaneous mutants of T. maritima and T. sp. […] Based on these observations, for the rest of the study, kanamycin was added at 150 μg ml^−1 to liquid media and at 250 μg ml^−1 to soft and solid media.

T. maritima = assay: as above; format: cell-based, Thermotoga maritima; details: liquid SVO
Experimental: as §1, §2

pUC19 DNA [2] = assay: Restriction assay of heat-purified cell extracts containing the REase; format: biochemical; details: for restriction activity retained on storage: heat-purified extract stored at 4° C.
Experimental: One gram of E. coli wet cells grown at 37° C., containing pJC339 or pJC340 or both, were resuspended in 3 ml lysis buffer (10 mM Tris-HCl, 10 mM MgCl2, 50 mM NaCl, 1 mM DTT, pH 8.0) and were lysed with two passages through a French press at 14,000 pounds per square inch. After centrifugation at 27 k×g for 25 min, the supernatant was transferred to a new tube and heated at 77° C. for 1 h to denature most of the host proteins, followed by another round of centrifugation at 17 k×g for 15 min. The supernatant containing purified Thermotoga proteins was stored at 4° C. Such extracts retained 100% of the restriction activity for up to 5 weeks, and ≧50% of the activity for at least 12 weeks. For expression analysis, heat-purified cell extracts were mixed with loading buffer and were subjected to sodium dodecyl sulfate-polyacrylamide gel electrophoresis (SDS-PAGE) in 15% (w/v) gels. HisDetector Western Blot Kit (Kirkegaard & Perry Laboratories, Inc., Maryland, USA) was used for colorimetric immunodetection of histidine-tagged CTN—0339 protein. For restriction assays, heat-purified cell extracts containing the REase were serially diluted in 2-fold steps with the lysis buffer and were incubated with 5 μg of substrate DNA in a reaction volume of 50 μl. After 1 h of incubation at 50° C., 65° C., or 77° C., the reaction was terminated with 5 μl of stopping buffer (50 mM EDTA, 50% (w/v) glycerol, 0.02% (w/v) bromophenol blue, pH 8.0). Digested DNA fragments were resolved on 1% (w/v) agarose gels. One unit of the REase activity is defined as the quantity required to completely digest 1 μg of pUC19 DNA in 1 h at 77° C. For modification assays, heat-purified cell extracts containing the MTase were serially diluted in 2-fold steps with the lysis buffer and were incubated with 5 μg of substrate DNA in a total volume of 50 μl. After 1 h of incubation at 77° C., the reaction mix was then incubated with 0.5 U of the REase at 77° C. for overnight. One unit of the MTase activity is defined as the quantity required to completely protect 1 μg of pUC19 DNA from the cleavage of the REase for 1 h at 77° C.
The PCR product of CTN—0339 was completely digested by heat-purified REase. Two fragments were generated and were retrieved from agarose gels. The smaller piece was directly analyzed by Sanger sequencing; the larger piece was further digested by NdeI and was inserted into pUC19 at the NdeI-SmaI sites to form pDH22. The insertion region of the constructed vector was sequenced.
To provide further evidence to the functions of the two Thermotoga proteins, we first tested the restriction activity of CTN—0339 at 50° C., 65° C., and 77° C. using pUC19 plasmid DNA prepared from strain XL1-Blue MRF′. […] (FIG. 3). […] (FIG. 3). […]

pUC19 DNA [3] = assay: Modification assay: protection of pUC19 DNA from the REase by CTN_0340 extract; format: biochemical; details: 10 μl extract, 77° C. 1 h, then REase overnight at 77° C.
Experimental: One gram of E. coli wet cells grown at 37° C., containing pJC339 or pJC340 or both, were resuspended in 3 ml lysis buffer (10 mM Tris-HCl, 10 mM MgCl2, 50 mM NaCl, 1 mM DTT, pH 8.0) and were lysed with two passages through a French press at 14,000 pounds per square inch. After centrifugation at 27 k×g for 25 min, the supernatant was transferred to a new tube and heated at 77° C. for 1 h to denature most of the host proteins, followed by another round of centrifugation at 17 k×g for 15 min. The supernatant containing purified Thermotoga proteins was stored at 4° C. Such extracts retained 100% of the restriction activity for up to 5 weeks, and ≧50% of the activity for at least 12 weeks. For expression analysis, heat-purified cell extracts were mixed with loading buffer and were subjected to sodium dodecyl sulfate-polyacrylamide gel electrophoresis (SDS-PAGE) in 15% (w/v) gels. HisDetector Western Blot Kit (Kirkegaard & Perry Laboratories, Inc., Maryland, USA) was used for colorimetric immunodetection of histidine-tagged CTN—0339 protein. […] One unit of the REase activity is defined as the quantity required to completely digest 1 μg of pUC19 DNA in 1 h at 77° C. […] One unit of the MTase activity is defined as the quantity required to completely protect 1 μg of pUC19 DNA from the cleavage of the REase for 1 h at 77° C. […]

pUC19 = assay: Enzyme activity assay of M.TneDI prepared from DH1021 strains; format: biochemical
Experimental: Cells from 10 ml of the induced DH1021 cultures were harvested by centrifugation and were resuspended in 150 μl of lysis buffer (10 mM Tris-HCl, 10 mM MgCl2, 50 mM NaCl, 1 mM DTT, pH 8.0). Lysozyme was added to a final concentration of 0.3 mg/ml. The cell suspension was subject to 3 freeze-thaw cycles to lyse the cells. Cell lysate was then heated at 77° C. for 30 min to denature host proteins. After centrifugation at 21,130 g for 5 min, the supernatant was recovered and used as M.TneDI preparations for activity assays. Such prepared M.TneDI can be stored at −20° C. in the presence of 10% (v/v) glycerol for more than 2 months.
Plasmid pUC19 extracted from a XL1-Blue MRF′ host was used as the substrate DNA (FIG. 10). Eight micrograms of pUC19 was incubated with 10 μl of the above prepared M.TneDI for 1 h at 77° C., supplemented with 20 μg/ml of S-adenosyl-L-methionine (AdoMet). The DNA was then subjected to restriction digestions of R.TneDI or other Type II REases recognizing CGCG sequence, such as BstUI. […] Based on the growth and the enzyme activity assays, DH10212-3 was identified as the best strain for production of M.TneDI.

C[S+](CC[C@H](N)C(=O)[O-])C[C@H]1O[C@@H](n2cnc3c(N)ncnc32)[C@H](O)[C@@H]1O (stereo partly drawn) [AdoMet, S-adenosyl-L-methionine]
original AdoMet found ([1]; 6 days): ~70% | original AdoMet found ([1]; 15 days): ~25%

NC[C@H]1O[C@H](O[C@H]2[C@H](O)[C@@H](O[C@H]3O[C@H](CO)[C@@H](O)[C@H](N)[C@H]3O)[C@H](N)C[C@@H]2N)[C@H](O)[C@@H](O)[C@@H]1O [kanamycin]
kanamycin concentration at which spontaneous mutants rarely showed up (T. sp. RQ7): 250 µg/mL | kanamycin concentration that completely inhibited growth (T. maritima; at least 72 h): 50 µg/mL | kanamycin input needed for complete inhibition despite spontaneous mutations (T. maritima; over a period of 72 h): 150 µg/mL

B1: R.TneDI: Type II restriction endonuclease of T. neapolitana encoded by CTN_0339, recognizing CGCG; SEQ ID NO: 13 (protein, listed as Thermotoga neapolitana)
chain: MRKTDPLIDIFKKNKERIDILGKAWDIFYFEGRAPDVGKRRENFIVEMIRKELSHFIKSVNQAPDTERNWDIEITFQDDSTKRYSIKTTEGFSDVKIAWDGFPTKDRILTFNFQADIFYIARNKDKIILCVIDLEKLRDLQREVEKNESKLEEYYSLPSSNTNPRGFGLKSSTVKRLIELSKKEENYLEIDYKPFPVELILKAKEEYFKGWYDLIKELIEKYQQ
extract required to completely digest 1 μg of pUC19 DNA within 1 h (pUC19 DNA [2]; 65° C. or 50° C.): 2.5 μl | extract required to completely digest 1 μg of pUC19 DNA within 1 h (pUC19 DNA [2]; 77° C., relative to the amount at 65° C. or 50° C.): half of the amount | restriction activity retained on storage (pUC19 DNA [2]; at least 12 weeks): ≥ 50% | restriction activity retained on storage (pUC19 DNA [2]; up to 5 weeks): 100%

B2: M.TneDI: methyltransferase of T. neapolitana encoded by CTN_0340, modifies CGCG sequences; SEQ ID NO: 14 (protein, listed as Thermotoga neapolitana)
chain: MKRRKSTRTSSFGVKGRESHDSSPFYSRAIYSNFSLPKPSEEDLIENPLPENLLDKVIEGDAREVLKKIPDCSIHLMVTSPPYNVGKEYDEDMTLDEYLEFIEEIMKEVYRVLVWGGRACFNVANLGRKPYIPLHAYLIHLFEKIGFLIRGEIIWDKGEAVSGSSTAWGSWMSPVNPVLRDQHEYIIVMSKGDLKRRKPSDREAKSTITREEFLEFTRSVWKFPPESAKRVGHPAPFPEELPYRCIQLYTFKGDVVLDPFAGVGTTCVAAVKTGRHFVGIEINPEYVKKAEERVKDILSKPTLFEDHC
digestion of treated pUC19 DNA by the REase (pUC19 DNA [3]): only partially digested | protection of substrate DNA from R.TneDI or BstUI (pUC19; 10 μl preparation, 8 μg pUC19, 1 h at 77° C., 20 μg/ml AdoMet): prevents substrate DNA from the degradation | storage time of M.TneDI preparation (pUC19; −20° C., 10% (v/v) glycerol): more than 2 months
